In the supplement of paper PMC11780869:

Tested on: Bacillus subtilis
Experiment: cleaved RNA product abundance (RNA/gDNA barcode ratio) relative to median wild-type variant (ratio to wild type); higher = more accumulation of the downstream cleavage product
Conditions: cleavage site: cggR-gapA (positions -7 to +36 mutated)
Summary of the method: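 Oligos with a 9% error rate were used to build barcoded, mutagenized RNase Y cleavage-site windows within truncated aprE or tetM reporter mRNAs, which were integrated into the B. subtilis chromosome. Cultures were grown in LB at 37°C between OD600 0.0003 and 0.3. Cleaved RNA was gel-selected, reverse transcribed and barcode-sequenced, as were genomic DNA barcodes, and UMIs were collapsed. Cleaved product abundance is the scaled RNA:gDNA barcode ratio, with the median construct carrying the unmutated site as reference.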

[1] = experiment (reporter, strain, medium): exp 2b: truncated aprE reporter, strain BJT200
[2] = experiment (reporter, strain, medium): exp 4a: truncated aprE reporter, strain BJT201 with 2% xylose (RNase J1 expressed)
[3] = experiment (reporter, strain, medium): exp 6: tetM reporter, strain 168

Sequence | cleaved RNA product abundance [1] | cleaved RNA product abundance [2] | cleaved RNA product abundance [3]
ACAGACGAAGGAGCCGCAAAGAAGTTATTAAAGGATGAATAACCCCTCAATATAAATATCTCTCACTTATTTAAA | 0.105 | 0.108 | –
ACAGACGAAGGAGCCGCAAAGAAGTTATTAAAGGATGAATAATACCTCAATATAAATATCTCTCACTTATTTAAA | 0.0942 | 0.121 | 0.108
ACAGACGAAGGAGCCGCAAAGAAGTTATTAAAGGATGAATAATCACTCAATATAAATATCTCTCACTTATTTAAA | 0.0796 | 0.14 | –
ACAGACGAAGGAGCCGCAAAGAAGTTATTAAAGGATGAATAATCCATCAATATAAATATCTCTCACTTATTTAAA | 0.141 | 0.178 | –
ACAGACGAAGGAGCCGCAAAGAAGTTATTAAAGGATGAATAATCCCACAATATAAATATCTCTCACTTATTTAAA | 0.113 | 0.173 | –
ACAGACGAAGGAGCCGCAAAGAAGTTATTAAAGGATGAATAATCCCCCAATATAAATATCTCTCACTTATTTAAA | 0.152 | 0.156 | –
ACAGACGAAGGAGCCGCAAAGAAGTTATTAAAGGATGAATAATCCCCTCAATATAAATATCTCTCACTTATTTAA | – | 0.159 | –
ACAGACGAAGGAGCCGCAAAGAAGTTATTAAAGGATGAATAATCCCGCAATATAAATATCTCTCACTTATTTAAA | – | 0.219 | –
ACAGACGAAGGAGCCGCAAAGAAGTTATTAAAGGATGAATAATCCCTAAATATAAATATCTCTCACTTATTTAAA | 0.232 | 0.342 | –
ACAGACGAAGGAGCCGCAAAGAAGTTATTAAAGGATGAATAATCCCTCAAAATAAATATCTCTCACTTATTTAAA | 0.148 | 0.152 | –
ACAGACGAAGGAGCCGCAAAGAAGTTATTAAAGGATGAATAATCCCTCAACATAAATATCTCTCACTTATTTAAA | – | 0.265 | –
ACAGACGAAGGAGCCGCAAAGAAGTTATTAAAGGATGAATAATCCCTCAATACAAATATCTCTCACTTATTTAAA | 0.126 | 0.0875 | –
ACAGACGAAGGAGCCGCAAAGAAGTTATTAAAGGATGAATAATCCCTCAATAGAAATATCTCTCACTTATTTAAA | 0.111 | 0.107 | –
ACAGACGAAGGAGCCGCAAAGAAGTTATTAAAGGATGAATAATCCCTCAATATAAAAATCTCTCACTTATTTAAA | 0.147 | 0.244 | –
ACAGACGAAGGAGCCGCAAAGAAGTTATTAAAGGATGAATAATCCCTCAATATAAACATCTCTCACTTATTTAAA | – | 0.206 | –
ACAGACGAAGGAGCCGCAAAGAAGTTATTAAAGGATGAATAATCCCTCAATATAAATAACTCTCACTTATTTAAA | 0.157 | 0.229 | –
ACAGACGAAGGAGCCGCAAAGAAGTTATTAAAGGATGAATAATCCCTCAATATAAATACCTCTCACTTATTTAAA | – | 0.13 | –
ACAGACGAAGGAGCCGCAAAGAAGTTATTAAAGGATGAATAATCCCTCAATATAAATAGCTCTCACTTATTTAAA | – | 0.176 | –
ACAGACGAAGGAGCCGCAAAGAAGTTATTAAAGGATGAATAATCCCTCAATATAAATATATCTCACTTATTTAAA | – | 0.259 | –
ACAGACGAAGGAGCCGCAAAGAAGTTATTAAAGGATGAATAATCCCTCAATATAAATATCTCTCACTTATTTAAA | 0.162 | 0.211 | 0.242
ACAGACGAAGGAGCCGCAAAGAAGTTATTAAAGGATGAATAATCCCTCAATATAAATATTTCTCACTTATTTAAA | – | 0.247 | –
ACAGACGAAGGAGCCGCAAAGAAGTTATTAAAGGATGAATAATCCCTCAATATAAATCTCTCTCACTTATTTAAA | – | 0.208 | –
ACAGACGAAGGAGCCGCAAAGAAGTTATTAAAGGATGAATAATCCCTCAATATAAATGTCTCTCACTTATTTAAA | 0.136 | 0.155 | –
ACAGACGAAGGAGCCGCAAAGAAGTTATTAAAGGATGAATAATCCCTCAATATAATTATCTCTCACTTATTTAAA | – | 0.161 | –
